The target in one assay is T1, PARP10 (human, UniProt Q53GL7 1-1025).
T1 sequence (looked up): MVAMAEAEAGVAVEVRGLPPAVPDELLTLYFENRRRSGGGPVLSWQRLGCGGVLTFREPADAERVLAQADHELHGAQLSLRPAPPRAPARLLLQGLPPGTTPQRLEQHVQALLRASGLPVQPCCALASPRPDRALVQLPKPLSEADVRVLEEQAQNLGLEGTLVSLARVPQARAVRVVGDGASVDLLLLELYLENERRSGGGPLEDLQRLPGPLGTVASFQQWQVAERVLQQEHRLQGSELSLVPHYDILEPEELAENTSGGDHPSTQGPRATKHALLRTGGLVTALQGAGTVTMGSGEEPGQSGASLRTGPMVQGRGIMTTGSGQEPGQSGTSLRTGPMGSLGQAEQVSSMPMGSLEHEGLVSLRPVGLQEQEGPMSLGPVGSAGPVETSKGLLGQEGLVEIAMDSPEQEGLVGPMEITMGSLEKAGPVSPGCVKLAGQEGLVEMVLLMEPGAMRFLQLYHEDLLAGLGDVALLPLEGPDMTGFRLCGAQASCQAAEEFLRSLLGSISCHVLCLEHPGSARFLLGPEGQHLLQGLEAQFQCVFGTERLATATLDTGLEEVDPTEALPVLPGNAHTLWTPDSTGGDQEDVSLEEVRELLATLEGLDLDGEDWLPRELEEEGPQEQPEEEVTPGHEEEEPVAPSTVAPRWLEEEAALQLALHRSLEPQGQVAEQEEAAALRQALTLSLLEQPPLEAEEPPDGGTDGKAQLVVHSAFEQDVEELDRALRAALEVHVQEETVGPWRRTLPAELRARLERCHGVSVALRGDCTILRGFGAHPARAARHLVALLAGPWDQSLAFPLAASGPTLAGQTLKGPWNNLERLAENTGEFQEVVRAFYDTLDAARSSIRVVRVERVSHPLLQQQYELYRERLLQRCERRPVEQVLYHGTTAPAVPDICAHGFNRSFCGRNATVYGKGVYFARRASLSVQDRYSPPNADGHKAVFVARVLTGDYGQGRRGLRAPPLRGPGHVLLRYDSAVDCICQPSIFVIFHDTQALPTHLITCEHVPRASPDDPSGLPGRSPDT
The assay is described as follows: IP/MS, LZTR1 R810W-FLAG, U87. In outline: (§1)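 Extracted peptides in 3% acetonitrile/0.1% formic acid ran on a 50 cm C18 column into an Orbitrap Fusion, with MaxQuant identification and spectral counting.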

The next assay addresses TRIO (human, UniProt O75962 1-3097, limits assumed). The assay is described as follows: IP/MS, LZTR1 R810W-FLAG, U87. The method in brief: as §1

B1: LZTR1 R810W-FLAG (other, human, UniProt Q8N653 1-840, looked up)
chain: MAGPGSTGGQIGAAALAGGARSKVAPSVDFDHSCSDSVEYLTLNFGPFETVHRWRRLPPCDEFVGARRSKHTVVAYKDAIYVFGGDNGKTMLNDLLRFDVKDCSWCRAFTTGTPPAPRYHHSAVVYGSSMFVFGGYTGDIYSNSNLKNKNDLFEYKFATGQWTEWKIEGRLPVARSAHGATVYSDKLWIFAGYDGNARLNDMWTIGLQDRELTCWEEVAQSGEIPPSCCNFPVAVCRDKMFVFSGQSGAKITNNLFQFEFKDKTWTRIPTEHLLRGSPPPPQRRYGHTMVAFDRHLYVFGGAADNTLPNELHCYDVDFQTWEVVQPSSDSEVGGAEVPERACASEEVPTLTYEERVGFKKSRDVFGLDFGTTSAKQPTQPASELPSGRLFHAAAVISDAMYIFGGTVDNNIRSGEMYRFQFSCYPKCTLHEDYGRLWESRQFCDVEFVLGEKEECVQGHVAIVTARSRWLRRKITQARERLAQKLEQEAAPVPREAPGVAAGGARPPLLHVAIREAEARPFEVLMQFLYTDKIKYPRKGHVEDVLLIMDVYKLALSFQLCRLEQLCRQYIEASVDLQNVLVVCESAARLQLSQLKEHCLNFVVKESHFNQVIMMKEFERLSSPLIVEIVRRKQQPPPRTPLDQPVDIGTSLIQDMKAYLEGAGAEFCDITLLLDGHPRPAHKAILAARSSYFEAMFRSFMPEDGQVNISIGEMVPSRQAFESMLRYIYYGEVNMPPEDSLYLFAAPYYYGFYNNRLQAYCKQNLEMNVTVQNVLQILEAADKTQALDMKRHCLHIIVHQFTKVSKLPTLWSLSQQLLLDIIDSLASHISDKQCAELGADI
notes: Stably expressed in U87 cells by lentivirus; also called LZTR1-FLAG-R810W; LZTR1 RW; not shown: FLAG tag
B1: the binding result with PARP10 and with TRIO was “binds” throughout.
